Consider one substance from paper PMC5560099.

The subject of the data set is O=C(Cc1cccs1)N[C@@H]1C(=O)N2C(C(=O)O)=C(/C=C/c3ccc([N+](=O)[O-])cc3[N+](=O)[O-])CS[C@H]12. As to the kind of experiment: steady-state hydrolysis kinetics with purified PenA. Format: biochemical, Burkholderia multivorans.

What is called Km is the concentration of substrate that gives half-maximal velocity. The term kcat/Km denotes the turnover number divided by the Michaelis constant. As to “PenA β-lactamase (Burkholderia multivorans ATCC 17616)”, the Km worked out at 147 ± 15 µM and the kcat/Km worked out at 3.2e+06 ± 300000 M⁻¹ s⁻¹.
